Results reported in US20150283227A1, “SYNTHETIC ENV PROTEINS” (priority 2012, published 2015).
pKd: −log10 of the molar value. Where “and” joins values, the source holds several entries; their conditions need not be identical. Equal entries are not always repeated. Where two headings read alike, the source gives them in different places. Where a SMILES comes first, the peptide text is derived from it. [ ]: non-standard residue; d: D form. ξ: configuration not given here. Orn(CH(NH2)2) = NC(N)NCCC[C@H](N)C(=O)O; Ile(3ξ) = CCC(C)[C@H](N)C(=O)O; Thr(3ξ) = CC(O)[C@H](N)C(=O)O

Assays:
[1] = tested on: BnAb PG9; type: binding, human
Protocol: V1V2 glycopeptide binding Kd and rate constant measurements were carried out on a BIAcore 3000 instrument using an anti-human Ig Fc capture assay as described earlier (Alam, S. M.; McAdams, M.; Boren, D.; Rak, M.; Scearce, R. M.; Gao, F.; Camacho, Z. T.; Gewirth, D.; Kelsoe, G.; Chen, P.; Haynes, B. F. J. Immunol. 2007, 178, 4424-4435.). Anti-human IgG Fc antibody (Sigma Chemicals) was immobilized on a CM5 sensor chip to about 10000 response units (RU), and each antibody was captured to about 300 RU. Anti-RSV Synagis mAb was captured on the same sensor chip as a control surface. Non-specific binding and drift in signal was double referenced by subtracting binding to the control surface and blank buffer flow for each of the peptide binding interactions. All curve-fitting analyses were performed using global fit of multiple titrations to the 1:1 Langmuir model. All data analysis was performed using the BIAevaluation 4.1 analysis software (GE Healthcare).

[2] = tested on: BnAb CH01; assay: SPR binding of V1V2 peptides/glycopeptides to captured mAb CH01; design: species or system human
[3] = tested on: V2 mAb CH58; assay: SPR binding of V1V2 peptides/glycopeptides to captured V2 mAb CH58; design: species or system human
[4] = tested on: V2 mAb CH59; assay: SPR binding of V1V2 peptides to captured V2 mAb CH59; design: species or system human; conditions: Example 6; peptide oxidized by solubilization in DMSO, 50 ug/mL
From the text: FIGS. 42A-42D. Selective binding of V1V2 BnAbs to mannose derivatized V1V2 glycopeptides but not to aglycone or GlcNAc2 V1V2 peptides. SPR curves showing preferential binding of PG9 and CH01 BnAbs to Man5—(FIG. 42A) and Man3—(FIG. 42B) GlcNAc2 V1V2 glycopeptides but not to GlcNAc2 (FIG. 42C) and aglycone (FIG. 42D) peptides. By contrast, V2 mAbs CH58 and CH59 bound to both aglycone ([…]) and GlcNAc2 (FIG. 42D) V1V2 peptides. Each V1V2 peptide was oxidized by solubilization in DMSO and injected over the indicated MAb at 50 ug/mL. Data shown is after reference subtraction of non-specific signal measured over the control mAb (Synagis). Binding data are representative of at least three experiments for Man5 and Man3 V1V2 peptides and two experiments for GlcNAc2 and aglycone V1V2.
V1V2 glycopeptide binding Kd and rate constant measurements were carried out on BIAcore 3000 instruments as described earlier (Alam et al, Immunol. 178(7):4424-4435 (2007), Alam et al, J. Virol. 82(1):115-125 (2008)). Anti-human IgG Fc antibody (Sigma Chemicals) was immobilized on either a CM3 or CM5 (CM3 for kinetics and Kd determination) sensor chip (to minimize non-specific binding of peptides to chip matrix) to about 5000 Resonance Unit (RU) and each antibody was captured to about 100-200 RU on individual flow cells, in addition to one flow cell with the control Synagis mAb on the same sensor chip. […]

[5] = tested on: PG9 UCA; assay: SPR binding to unmutated ancestor of PG9; design: species or system human; conditions: for SPR binding to PG9 UA: Example 1
Protocol: (§1) Only the V1/V2 mAb CH58 bound to the glycan-deficient (aglycone) peptide (FIG. 9A). V1/V2 bNAbs ([…], CH01) bound weakly to V1/V2 GlcNAc2 peptide (FIG. 9B). In contrast, both bNAbs PG9 and CH01 bound avidly to the glycopeptides, V1/V2 Man3GlcNAc2 and V1/V2 Man5GlcNAc2 (FIGS. 9C and 9D). CH58 bound weakly to both glycopeptides. Each of the mAbs was captured on a human Fc specific IgG directly immobilized on a BIAcore CM5 sensor chip. Each of the V1/V2 peptides (3 min at 50 uL/min) was injected over the mAb captured surface and SPR binding was monitored on a BIAcore 3000 instrument. Non-specific binding of peptides was subtracted following measurement of signal on a surface with a control ant-RSV mab Synagis.
(§2) The binding Kd (disassociation constant) of the UAs ranges from about 0.15 to 0.2 μM.
(§3) V1V2 glycopeptide binding Kd and rate constant measurements were carried out on BIAcore 3000 instruments as described earlier (Alam et al, Immunol. 178(7):4424-4435 (2007), Alam et al, J. Virol. 82(1):115-125 (2008)). Anti-human IgG Fc antibody (Sigma Chemicals) was immobilized on either a CM3 or CM5 (CM3 for kinetics and Kd determination) sensor chip (to minimize non-specific binding of peptides to chip matrix) to about 5000 Resonance Unit (RU) and each antibody was captured to about 100-200 RU on individual flow cells, in addition to one flow cell with the control Synagis mAb on the same sensor chip. Non-specific binding of V1V2 glycopeptide was double-referenced by substracting the control surface and blank buffer flow for each mAb-V1V2 glycopeptide binding interaction. […] SPR curve fitting analysis was performed using global fit of multiple titrations to the 1:1 Langmuir model. All data analysis was performed using the BIAevaluation 4.1 analysis software (GE Healthcare).

[6] = tested on: CH01 UCA; assay: SPR binding to unmutated ancestor of CH01; design: species or system human; conditions: for SPR binding to CH01 UA: Example 1
Protocol: as §1, §2, §3

[7] = tested on: CH58 UCA; assay: SPR binding to unmutated ancestor of CH58; design: species or system human; conditions: Example 1
Protocol: as §1, §3

[8] = tested on: 697D; assay: SPR binding to conformational V2 mAb 697D; conditions: Example 1
[9] = Aqueous solubility in phosphate buffer; type: physicochemical
[10] = target: PG9; conditions: NMR studies, Man5GlcNAc2-Asn alone; read-out: Kd for binding of PG9; cited from earlier work
[11] = target: Man5GlcNAc2 V1V2 glycopeptide, DMSO-oxidized disulfide-linked dimer (HIV-1 strain AE.CM244 (A244)); assay: SPR kinetics, DMSO-oxidized dimer; reference CH01
[12] = target: Man5GlcNAc2 V1V2 glycopeptide, DMSO-oxidized disulfide-linked dimer (HIV-1 strain AE.CM244 (A244)); assay: SPR kinetics, DMSO-oxidized dimer; reference CH58 UCA
[13] = target: Man3GlcNAc2 V1V2 glycopeptide, DMSO-oxidized disulfide-linked dimer (HIV-1 strain AE.CM244 (A244)); assay: SPR kinetics, mAb captured on anti-IgG, DMSO-oxidized dimer injected; 1:1 Langmuir
[14] = target: Man5GlcNAc2 V1V2 glycopeptide, DMSO-oxidized disulfide-linked dimer (HIV-1 strain AE.CM244 (A244)); assay: as above
[15] = target: Man3GlcNAc2 V1V2 glycopeptide, DMSO-oxidized disulfide-linked dimer (HIV-1 strain AE.CM244 (A244)); assay: SPR kinetics, mAb captured on anti-IgG, DMSO-oxidized dimer injected; faster component of the dissociation phase
[16] = target: Man5GlcNAc2 V1V2 glycopeptide, DMSO-oxidized disulfide-linked dimer (HIV-1 strain AE.CM244 (A244)); assay: as above
[17] = target: Man3GlcNAc2 V1V2 glycopeptide, DMSO-oxidized disulfide-linked dimer (HIV-1 strain AE.CM244 (A244)); assay: SPR, DMSO-oxidized dimer 1-10 µg/mL over CH58 UCA captured on anti-IgG
[18] = target: Man5GlcNAc2 V1V2 glycopeptide, DMSO-oxidized disulfide-linked dimer (HIV-1 strain AE.CM244 (A244)); assay: as above
[19] = target: Man5GlcNAc2 V1V2 glycopeptide, DMSO-oxidized disulfide-linked dimer (HIV-1 strain AE.CM244 (A244)); assay: SPR kinetics, DMSO-oxidized dimer injected over captured mAb
[20] = target: Man3GlcNAc2 V1V2 (2), not deliberately oxidized (HIV-1 strain AE.CM244 (A244)); assay: SPR, BIAcore 3000, PG9 captured on anti-human Ig Fc, glycopeptide as analyte; 1:1 Langmuir global fit
[21] = target: Man5GlcNAc2 V1V2 (1), not deliberately oxidized (HIV-1 strain AE.CM244 (A244)); assay: as above
[22] = target: Man5GlcNAc2 V1V2 glycopeptide, DMSO-oxidized disulfide-linked dimer (HIV-1 strain AE.CM244 (A244)); assay: SPR kinetics, DMSO-oxidized dimer; reference PG9
[23] = Example 6, peptide solubilized/oxidized in DMSO, 50 μg/mL
[24] = listed as V1V2 aglycone peptide

CCC(C)[C@H](NC(=O)[C@@H]1CCCN1C(=O)[C@@H](NC(=O)[C@@H](NC(=O)[C@H](CC(=O)O)NC(=O)[C@H](CC(C)C)NC(=O)[C@H](CCCCN)NC(=O)[C@H](Cc1ccc(O)cc1)NC(=O)[C@H](Cc1ccccc1)NC(=O)[C@H](CC(C)C)NC(=O)[C@H](C)NC(=O)[C@H](Cc1cnc[nH]1)NC(=O)[C@@H](NC(=O)[C@H](CCCCN)NC(=O)[C@H](CCC(N)=O)NC(=O)[C@H](CCCCN)NC(=O)[C@H](CCCCN)NC(=O)[C@H](CC(=O)O)NC(=O)[C@H](CCCNC(=N)N)NC(=O)[C@H](CC(C)C)NC(=O)[C@H](CCC(=O)O)NC(=O)[C@@H](NC(=O)[C@@H](NC(=O)[C@H](CCSC)NC(=O)[C@H](CC(N)=O)NC(=O)[C@H](Cc1ccccc1)NC(=O)[C@H](CO)NC(=O)[C@H](CS)NC(=O)[C@H](CC(N)=O)NC(=O)[C@H](CCCNC(N)N)NC(=O)[C@@H](NC(=O)[C@H](CCC(=O)O)NC(=O)[C@H](CC(=O)O)NC(=O)[C@@H](NC(=O)[C@@H](NC(C)=O)C(C)CC)C(C)O)C(C)C)C(C)O)C(C)O)C(C)C)C(C)CC)C(C)C)C(N)=O (stereo partly drawn) [Aglycone V1V2] (Ac-[Ile(3ξ)][Thr(3ξ)]DEV[Orn(CH(NH2)2)]NCSFNM[Thr(3ξ)][Thr(3ξ)]ELRDKKQKVHALFYKLD[Ile(3ξ)]VP[Ile(3ξ)]-NH2)
SPR binding to PG9 ([1]; Example 5, peptides 200 μg/mL, glycans 25 μg/mL over captured PG9): not detected | SPR binding to PG9 ([1]; Example 5, peptides 200 μg/mL, glycans 25 μg/mL over captured PG9, listed as V1V2 aglycone): minimal to no binding | SPR binding to PG9 [1, 23]: no binding | SPR binding to CH01 ([2]; Example 1, peptide injected over captured mAb): not to the aglycone peptide | SPR binding to CH01 [2, 23]: no binding | SPR binding to CH58 ([3]; Example 1, antigen injected over captured mAb): bound | SPR binding to CH58 ([3]; Example 6, peptide solubilized/oxidized in DMSO, 1-50 μg/mL): retained | SPR binding to CH59 [4]: bound | SPR binding to PG9 UA [5]: not to the aglycone peptide | SPR binding to PG9 UA [5, 24]: no binding | SPR binding to PG9 UCA ([5]; Example 6): neither UCAs bound | SPR binding to CH01 UA [6]: not to the aglycone peptide | SPR binding to CH01 UA [6, 24]: no binding | SPR binding to CH01 UCA ([6]; Example 6): neither UCAs bound | SPR binding to CH58 UA [7]: no binding | SPR binding to 697D [8]: not to the aglycone peptide | aqueous solubility [9]: Poor aqueous solubility

CC(=O)N[C@@H]1[C@@H](O)[C@H](O[C@@H]2O[C@H](CO)[C@@H](O[C@@H]3O[C@H](CO[C@H]4O[C@H](CO[C@H]5O[C@H](CO)[C@@H](O)[C@H](O)[C@@H]5O)[C@@H](O)[C@H](O[C@H]5O[C@H](CO)[C@@H](O)[C@H](O)[C@@H]5O)[C@@H]4O)[C@@H](O)[C@H](O[C@H]4O[C@H](CO)[C@@H](O)[C@H](O)[C@@H]4O)[C@@H]3O)[C@H](O)[C@H]2NC(C)=O)[C@@H](CO)O[C@H]1NC(=O)C[C@H](N)C(=O)O [Man5GlcNAc2-Asn]
pKd [10]: 2.70 to 3.00 and 2.80

CH01 UCA (antibody)
fold weaker binding than the mature BnAb [11]: 3 fold | fold higher affinity than the UCA of CH58 [12]: 5 fold | kon [13]: 2060 M⁻¹ s⁻¹ | kon [14]: 8490 M⁻¹ s⁻¹ | pKd [15]: 5.75 | koff [15]: 0.00363 s⁻¹ | pKd [16]: 6.93 | koff [16]: 0.000721 s⁻¹

CH58 UCA (antibody)
pKd [17]: 6.22 | pKd [18]: 6.30

PG9 (antibody)
fold higher affinity than CH01 for the same peptide [19]: 2 fold | pKd [13]: 7.43 | koff [13]: 0.000147 s⁻¹ | kon [13]: 3970 M⁻¹ s⁻¹ | pKd [14]: 7.53 | koff [14]: 0.000271 s⁻¹ | kon [14]: 9200 M⁻¹ s⁻¹ | pKd [20]: 6.92 | pKd [21]: 6.51

PG9 UCA (antibody)
fold weaker binding than the mature BnAb [22]: 3 fold | fold higher affinity than the UCA of CH58 [12]: 5 fold | kon [13]: 5330 M⁻¹ s⁻¹ | kon [14]: 7410 M⁻¹ s⁻¹ | pKd [15]: 5.97 | koff [15]: 0.00566 s⁻¹ | pKd [16]: 7.01 | koff [16]: 0.000723 s⁻¹
